# T1: UL84-6xHis (Human cytomegalovirus, UniProt P16727 1-586)
# T1 sequence: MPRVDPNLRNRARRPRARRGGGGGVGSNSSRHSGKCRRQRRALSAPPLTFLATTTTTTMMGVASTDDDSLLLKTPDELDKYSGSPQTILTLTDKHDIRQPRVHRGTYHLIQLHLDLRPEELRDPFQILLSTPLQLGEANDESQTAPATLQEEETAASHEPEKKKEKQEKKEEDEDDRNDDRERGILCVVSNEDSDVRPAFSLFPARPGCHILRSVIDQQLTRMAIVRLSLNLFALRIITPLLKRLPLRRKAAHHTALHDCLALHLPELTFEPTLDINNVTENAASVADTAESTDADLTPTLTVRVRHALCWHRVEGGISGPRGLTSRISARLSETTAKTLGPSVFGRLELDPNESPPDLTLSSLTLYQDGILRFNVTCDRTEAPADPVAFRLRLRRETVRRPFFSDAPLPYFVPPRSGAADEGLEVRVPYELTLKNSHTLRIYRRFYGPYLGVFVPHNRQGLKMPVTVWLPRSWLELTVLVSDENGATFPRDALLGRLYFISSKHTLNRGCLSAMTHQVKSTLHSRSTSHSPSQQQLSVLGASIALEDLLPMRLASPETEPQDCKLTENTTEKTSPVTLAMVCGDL
# T2: 6xHis-IE2(87-579) (Human cytomegalovirus, UniProt Q6SWP7 87-579)
# T2 sequence: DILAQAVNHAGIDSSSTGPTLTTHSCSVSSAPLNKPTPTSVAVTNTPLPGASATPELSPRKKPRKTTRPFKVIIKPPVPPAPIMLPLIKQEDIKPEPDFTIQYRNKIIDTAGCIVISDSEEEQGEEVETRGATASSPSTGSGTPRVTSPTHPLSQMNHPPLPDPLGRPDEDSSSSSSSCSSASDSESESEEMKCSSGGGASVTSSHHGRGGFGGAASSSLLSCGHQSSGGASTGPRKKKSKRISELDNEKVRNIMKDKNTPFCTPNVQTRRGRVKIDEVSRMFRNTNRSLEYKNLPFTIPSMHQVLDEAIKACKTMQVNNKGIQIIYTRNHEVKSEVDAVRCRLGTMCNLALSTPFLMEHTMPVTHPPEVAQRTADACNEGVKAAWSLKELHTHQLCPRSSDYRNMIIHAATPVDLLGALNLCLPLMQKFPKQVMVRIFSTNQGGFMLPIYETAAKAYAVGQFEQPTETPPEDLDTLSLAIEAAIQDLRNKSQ
# Legend:
# [1] = target: T1, UL84-6xHis; experiment: pull-down immunoblot
# [2] = target: T2, 6xHis-IE2(87-579); experiment: pull-down immunoblot
# [3] = target: T3, 6xHis-UL44(1-290) (Human cytomegalovirus, UniProt P16790 1-290); experiment: pull-down immunoblot
# [4] = target: T1, UL84-6xHis; experiment: pull-down
# [5] = target: T2, 6xHis-IE2(87-579); experiment: pull-down
# [6] = target: T3, 6xHis-UL44(1-290); experiment: pull-down
# [7] = target: T1, UL84-6xHis; experiment: ELISA
# [8] = target: T2, 6xHis-IE2(87-579); experiment: ELISA
# [9] = target: T3, 6xHis-UL44(1-290); experiment: ELISA
# T3 sequence (P16790 1-290): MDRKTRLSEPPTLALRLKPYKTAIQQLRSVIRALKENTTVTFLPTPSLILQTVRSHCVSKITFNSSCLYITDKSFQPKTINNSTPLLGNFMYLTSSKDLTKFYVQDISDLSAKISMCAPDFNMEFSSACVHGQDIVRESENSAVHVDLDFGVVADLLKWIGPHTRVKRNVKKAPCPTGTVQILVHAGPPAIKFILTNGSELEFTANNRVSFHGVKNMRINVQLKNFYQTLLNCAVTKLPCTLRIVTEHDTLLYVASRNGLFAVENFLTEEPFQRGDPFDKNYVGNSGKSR
binder,measurement,setting,value
AAGGGAAAGGGTGAGGGGGGGGGGTT (structured_DNA) [oriG4-1 L1],binding result,[1],binds
same,binding result,[2],binds
same,binding result,[3],binds
AAGGAGAGAGGTGAGGAGGAAAGGTT (ssDNA) [oriG4-1m],binding result,[4],no binding
same,binding result,[5],no binding
same,binding result,[6],no binding
AAGGGGGGGGGTGAGGGGGGGGGGTT (structured_DNA) [oriG4-1],Kd,[7],14.2 nM
same,Kd,[8],123 nM
same,Kd,[9],25.5 nM

# Reference: PMC11350156
